What was measured:
[1] = target: soluble mesothelin (sMSLN) (UniProt Q13421 296-580, limits assumed); experiment: cell-based or functional assay
[2] = target: mesothelin (MSLN) on target cells (H226, MeT-5A) (UniProt Q13421 37-598, limits assumed); experiment: cell-based or functional assay

B1: PRO2566 (MATCH4) (other)
chain 1: AFELTQSPSSLSASVGDRVTITCQASESINSRLAWYQQKPGQPPKLLIYDASDLTSGVPSRFSGSGSGTDFTLTISSLQPEDFATYYCQGYGGSSTTTFGTGTKLTVLGGGGGSGGGGSGGGGSGGGGSEVQLVESGGGLVQPGGSLRLSCAASGFSLSSYAMNWVRQAPGKGLEWIGHINAGDIAYYATWAKGRFTISRDNSKNTVYLQMNSLRAEDTAVYFCARGAGGFSTGPFKLWGQGTLVTVSSGGGGSGGGGSEVQLVESGGGLVQPGGSLRLSCAASGFSLSSYDMSWVRQAPGKGLAWIGASYASGPTYYASWAKGRFTISRDNSKNTVYLQMNSLRAEDTATYFCARGGWTGTSHSNIWGQGTLVTVSSGGGSGGGSGGGSGQSQLVESGGGLVQPGGSLRLSCAVSGFSLSSYAMGWVRQAPGKCLEYIGYISKIGTTYYASWAKGRFTISKDNSKNTVYLQMNSLRAEDTAVYFCARGSSSGGYLDDGFDPWGQGTLVTVSS
chain 2: ALQMTQSPSSLSARVGDRVTIKCQASQSISNYLAWYQQKPGKPPKFLIYDASDLASGVPSRFSGSGSGRDFTLTISSLQPEDFATYYCQQVYDSNNVENVFGCGTKVTVLGGGGGSGGGGSGGGGSGGGGSQSQLVESGGGLVQPGGSLRLSCAVSGFSLSSYAMGWVRQAPGKCLEYIGYISKIGTTYYASWAKGRFTISKDNSKNTVYLQMNSLRAEDTAVYFCARGSSSGGYLDDGFDPWGQGTLVTVSSGGGGSGGGGSALQMTQSPSSLSARVGDRVTIKCQASQSISNYLAWYQQKPGKPPKFLIYDASDLASGVPSRFSGSGSGRDFTLTISSLQPEDFATYYCQQVYDSNNVENVFGCGTKVTVLGGGSGGSGGSGGSGDIQMTQSPSSLSASVGDRVTITCQSSQSVFSNNYLAWFQQKPGQSPKRLIYSASTLASGVPSRFSGSGSGTDFTLTISSLQPEDFATYYCLGSYACSSADCYVFGTGTKVTVLG
With B1 the “increase of EC50 for killing high MSLN expressing target cells in the presence of 50 ng/ml sMSLN” value (from here on “increase of EC50 … of 50 ng/ml sMSLN”) [1] was ≤ 6 fold, the “increase of EC50 for killing high MSLN expressing target cells in the presence of 500 ng/ml sMSLN” value (“increase of EC50 … of 500 ng/ml sMSLN” for short) [1] was ≤ 40 fold and the “T-cell driven cytotoxicity assay: EC50 for killing high MSLN expressing target cells against EC50 for killing MeT-5A cells” value (from here on “T-cell driven cytotoxicity assay: EC50”) [2] was ≥ 25 fold.

B2: PRO2567 (MATCH4) (other)
chain 1: AFELTQSPSSLSASVGDRVTITCQASESINSRLAWYQQKPGQPPKLLIYDASDLTSGVPSRFSGSGSGTDFTLTISSLQPEDFATYYCQGYGGSSTTTFGTGTKLTVLGGGGGSGGGGSGGGGSGGGGSEVQLVESGGGLVQPGGSLRLSCAASGFSLSSYAMNWVRQAPGKGLEWIGHINAGDIAYYATWAKGRFTISRDNSKNTVYLQMNSLRAEDTAVYFCARGAGGFSTGPFKLWGQGTLVTVSSGGGGSGGGGSEVQLVESGGGLVQPGGSLRLSCAASGFSLSSYDMSWVRQAPGKGLAWIGASYASGPTYYASWAKGRFTISRDNSKNTVYLQMNSLRAEDTATYFCARGGWTGTSHSNIWGQGTLVTVSSGGGSGGGSGGGSGQSQLVESGGGLVQPGGSLRLSCAVSGFSLSSYAMGWVRQAPGKCLEYIGYISKIGTTYYASWAKGRFTISKDNSKNTVYLQMNSLRAEDTAVYFCARGSSSGGYLDDGFDPWGQGTLVTVSS
chain 2: ALQMTQSPSSLSARVGDRVTIKCQASQSISNYLAWYQQKPGKPPKFLIYDASDLASGVPSRFSGSGSGRDFTLTISSLQPEDFATYYCQQVYDSNNVENVFGCGTKVTVLGGGGGSGGGGSGGGGSGGGGSQSQLVESGGGLVQPGGSLRLSCAVSGFSLSSYAMGWVRQAPGKCLEYIGYISKIGTTYYASWAKGRFTISKDNSKNTVYLQMNSLRAEDTAVYFCARGSSSGGYLDDGFDPWGQGTLVTVSSGGGGSGGGGSALQMTQSPSSLSARVGDRVTIKCQASQSISNYLAWYQQKPGKPPKFLIYDASDLASGVPSRFSGSGSGRDFTLTISSLQPEDFATYYCQQVYDSNNVENVFGCGTKVTVLGGGSGGSDIQMTQSPSSLSASVGDRVTITCQSSQSVFSNNYLAWFQQKPGQSPKRLIYSASTLASGVPSRFSGSGSGTDFTLTISSLQPEDFATYYCLGSYACSSADCYVFGTGTKVTVLG
For B2, the “increase of EC50 … of 50 ng/ml sMSLN” value [1] was ≤ 6 fold, the “increase of EC50 … of 500 ng/ml sMSLN” value [1] was ≤ 40 fold and the “T-cell driven cytotoxicity assay: EC50” value [2] was ≥ 25 fold.

B3: PRO2562 (MATCH4) (other)
chain 1: ALQMTQSPSSLSARVGDRVTIKCQASQSISNYLAWYQQKPGKPPKFLIYDASDLASGVPSRFSGSGSGRDFTLTISSLQPEDFATYYCQQVYDSNNVENVFGCGTKVTVLGGGGGSGGGGSGGGGSGGGGSQSQLVESGGGLVQPGGSLRLSCAVSGFSLSSYAMGWVRQAPGKCLEYIGYISKIGTTYYASWAKGRFTISKDNSKNTVYLQMNSLRAEDTAVYFCARGSSSGGYLDDGFDPWGQGTLVTVSSGGGGSGGGGSEVQLVESGGGLVQPGGSLRLSCAASGFSLSSYDMSWVRQAPGKGLAWIGASYASGPTYYASWAKGRFTISRDNSKNTVYLQMCSLRAEDTATYFCARGGWTGTSHSNIWGQGTLVTVSSGGGSGGGSGGGSGEVQLVESGGGLVQPGGSLRLSCAASGFSLSSYAMNWVRQAPGKCLEWIGHINAGDIAYYATWAKGRFTISRDNSKNTVYLQMNSLRAEDTAVYFCARGAGGFSTGPFKLWGQGTLVTVSS
chain 2: ALQMTQSPSSLSARVGDRVTIKCQASQSISNYLAWYQQKPGKPPKFLIYDASDLASGVPSRFSGSGSGRDFTLTISSLQPEDFATYYCQQVYDSNNVENVFGCGTKVTVLGGGGGSGGGGSGGGGSGGGGSQSQLVESGGGLVQPGGSLRLSCAVSGFSLSSYAMGWVRQAPGKCLEYIGYISKIGTTYYASWAKGRFTISKDNSKNTVYLQMNSLRAEDTAVYFCARGSSSGGYLDDGFDPWGQGTLVTVSSGGGGSGGGGSAFELTQSPSSLSASVGDRVTITCQASESINSRLAWYQQKPGQPPKLLIYDASDLTSGVPSRFSGSGSGTDFTLTISCLQPEDFATYYCQGYGGSSTTTFGCGTKLTVLGGGSGGSGGSGGSGDIQMTQSPSSLSASVGDRVTITCQSSQSVFSNNYLAWFQQKPGQSPKRLIYSASTLASGVPSRFSGSGSGTDFTLTISSLQPEDFATYYCLGSYACSSADCYVFGTGTKVTVLG
In the case of B3, the “increase of EC50 … of 50 ng/ml sMSLN” value [1] is reported as ≤ 6 fold, the “increase of EC50 … of 500 ng/ml sMSLN” value [1] is reported as ≤ 40 fold and the “T-cell driven cytotoxicity assay: EC50” value [2] is reported as ≥ 25 fold.

B4: PRO2100 (biMSLNlow affinity x CD3 x hSA) (other)
chain 1: DIQMTQSPSSLSASVGDRVTITCQASQNIYSNLAWYQQKPGKAPKLLIYDASDLASGVPSRFSGSGSGTDFTLTISSLQPEDFATYYCQQVRSSSDIDNPFGTGTKVTVLGGGGGSGGGGSGGGGSGGGGSQVQLVESGGGLVQPGGSLRLSCAASGFSLSSYAMGWVRQAPGKGLEWIGYISTIANTYYASWAKGRFTISRDNSKNTVYLQMNSLRAEDTAVYYCAREIRSGWVDYGFSIWGQGTLVTVSSGGGGSGGGGSEVQLVESGGGLVQPGGSLRLSCAASGFSLSSYDMSWVRQAPGKGLAWIGASYASGPTYYASWAKGRFTISRDNSKNTVYLQMNSLRAEDTATYFCARGGWTGTSHSNIWGQGTLVTVSSGGGSGGGSEVQLVESGGGLVQPGGSLRLSCAASGFSFSSSYWICWVRQAPGKCLEWVGCVFTGDGTTYYASWAKGRFTISRDNSKNTVYLQMNSLRAEDTATYFCARPVSVYYYGMDLWGQGTLVTVSS
chain 2: DIQMTQSPSSLSASVGDRVTITCQASQNIYSNLAWYQQKPGKAPKLLIYDASDLASGVPSRFSGSGSGTDFTLTISSLQPEDFATYYCQQVRSSSDIDNPFGTGTKVTVLGGGGGSGGGGSGGGGSGGGGSQVQLVESGGGLVQPGGSLRLSCAASGFSLSSYAMGWVRQAPGKGLEWIGYISTIANTYYASWAKGRFTISRDNSKNTVYLQMNSLRAEDTAVYYCAREIRSGWVDYGFSIWGQGTLVTVSSGGGGSGGGGSDVVMTQSPSSLSASVGDRVTITCQASQIISSRSAWYQQKPGQPPKLLIYQASKLASGVPSRFSGSGSGTDFTLTISSLQPEDFATYYCQCTYIDSNFGAFGCGTKLTVLGGGSGGSDIQMTQSPSSLSASVGDRVTITCQSSQSVFSNNYLAWFQQKPGQSPKRLIYSASTLASGVPSRFSGSGSGTDFTLTISSLQPEDFATYYCLGSYACSSADCYVFGTGTKVTVLG
For B4, the “decrease of potency of T-cell driven target cell killing in the presence of 500 ng/ml soluble MSLN” value [1] was 17 fold.
